Test results reported in patent publication US8586570B2, “Sox-based kinase sensor” (Massachusetts Institute of Technology, priority 2006, dated 2013).

Columns and labels:
Experiment in all cases: Cross-reactivity of PKCα-S10 with PKC isozymes
Type in all cases: biochemical
Conditions in all cases: peptide 1 μM, isozyme 2 ng
PKCβI = PKCβI (Homo sapiens, UniProt P05771)
Description: (§1) With the kinetic parameters at hand it is possible to test the cross-reactivity of PKCα-S10 with PKC isozymes. In 12 separate reactions PKCα-S10 (1 μM) is subjected to phosphorylation with PKCα, PKCβI, PKCβII, PKCγ, PKCδ, PKCε, PKCζ, PKCη, PKCθ, PKCι, PKCμ and PKCν (2 ng).

PKCβII = PKCβII (Homo sapiens, UniProt P05771)
Sequence of PKCβII (P05771 1-673 isoform P05771-2): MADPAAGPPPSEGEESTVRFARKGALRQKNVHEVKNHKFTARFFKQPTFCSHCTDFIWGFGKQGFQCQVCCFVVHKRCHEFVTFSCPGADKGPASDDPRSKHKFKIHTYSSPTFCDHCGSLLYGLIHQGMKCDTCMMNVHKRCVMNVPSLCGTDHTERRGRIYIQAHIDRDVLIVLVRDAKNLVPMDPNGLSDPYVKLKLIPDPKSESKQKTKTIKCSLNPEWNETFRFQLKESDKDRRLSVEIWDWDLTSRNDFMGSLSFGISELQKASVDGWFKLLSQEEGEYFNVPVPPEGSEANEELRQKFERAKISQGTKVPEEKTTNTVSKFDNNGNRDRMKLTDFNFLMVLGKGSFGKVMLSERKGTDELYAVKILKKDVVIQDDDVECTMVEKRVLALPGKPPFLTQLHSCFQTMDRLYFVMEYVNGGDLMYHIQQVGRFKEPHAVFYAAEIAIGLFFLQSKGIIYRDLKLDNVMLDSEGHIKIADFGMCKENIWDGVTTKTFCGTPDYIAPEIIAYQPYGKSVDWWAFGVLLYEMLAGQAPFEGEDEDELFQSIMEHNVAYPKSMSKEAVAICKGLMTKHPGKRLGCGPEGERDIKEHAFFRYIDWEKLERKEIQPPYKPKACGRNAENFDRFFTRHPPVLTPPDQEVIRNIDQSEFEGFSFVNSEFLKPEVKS
Description: as §1

PKCγ = PKCγ (Homo sapiens, UniProt P05129)
Description: as §1

PKCδ = PKCδ (Homo sapiens, UniProt Q05655)
Sequence of PKCδ (Q05655 whole entry): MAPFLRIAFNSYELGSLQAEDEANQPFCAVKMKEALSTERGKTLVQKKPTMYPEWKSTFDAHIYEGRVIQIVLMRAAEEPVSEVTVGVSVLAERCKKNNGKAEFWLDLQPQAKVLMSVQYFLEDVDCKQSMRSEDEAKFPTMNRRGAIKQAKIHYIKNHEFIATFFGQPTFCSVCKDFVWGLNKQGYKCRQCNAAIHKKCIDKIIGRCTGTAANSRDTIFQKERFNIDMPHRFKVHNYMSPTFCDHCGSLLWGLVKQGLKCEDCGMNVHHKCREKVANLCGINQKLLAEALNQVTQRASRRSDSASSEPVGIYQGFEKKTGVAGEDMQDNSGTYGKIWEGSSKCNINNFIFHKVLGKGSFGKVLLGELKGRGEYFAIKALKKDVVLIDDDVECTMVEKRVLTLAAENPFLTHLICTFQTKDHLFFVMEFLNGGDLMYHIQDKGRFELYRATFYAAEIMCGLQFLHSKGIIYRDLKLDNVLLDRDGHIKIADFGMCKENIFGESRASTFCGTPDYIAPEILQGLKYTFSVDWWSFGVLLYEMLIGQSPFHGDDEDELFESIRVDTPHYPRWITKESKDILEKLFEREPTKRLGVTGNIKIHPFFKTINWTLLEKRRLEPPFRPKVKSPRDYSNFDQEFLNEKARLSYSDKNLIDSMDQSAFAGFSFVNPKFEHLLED
Description: as §1

PKCε = target: T1, PKCε (Homo sapiens, UniProt Q02156)
T1 sequence (Q02156 1-737): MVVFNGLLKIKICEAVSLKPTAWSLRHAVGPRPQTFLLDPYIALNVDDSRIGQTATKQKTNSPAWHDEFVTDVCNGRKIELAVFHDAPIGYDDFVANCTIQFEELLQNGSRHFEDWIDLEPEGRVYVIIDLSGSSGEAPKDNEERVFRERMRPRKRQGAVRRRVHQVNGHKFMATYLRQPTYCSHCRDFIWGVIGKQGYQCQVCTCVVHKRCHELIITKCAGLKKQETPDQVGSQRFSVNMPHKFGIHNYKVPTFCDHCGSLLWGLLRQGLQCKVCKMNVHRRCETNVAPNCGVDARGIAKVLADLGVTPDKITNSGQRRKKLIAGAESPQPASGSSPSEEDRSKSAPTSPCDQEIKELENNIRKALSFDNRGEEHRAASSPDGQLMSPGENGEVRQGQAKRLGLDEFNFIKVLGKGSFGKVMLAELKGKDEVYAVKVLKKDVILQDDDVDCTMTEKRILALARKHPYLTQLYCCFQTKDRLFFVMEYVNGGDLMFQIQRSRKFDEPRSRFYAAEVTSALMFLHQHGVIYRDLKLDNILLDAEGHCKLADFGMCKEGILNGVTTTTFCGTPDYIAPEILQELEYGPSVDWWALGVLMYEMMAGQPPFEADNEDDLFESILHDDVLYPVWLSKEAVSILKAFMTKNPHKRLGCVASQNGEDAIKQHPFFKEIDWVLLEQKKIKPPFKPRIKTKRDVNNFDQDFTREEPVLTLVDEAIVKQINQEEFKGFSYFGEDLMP
Description: as §1

PKCη = PKCη (Homo sapiens, UniProt P24723)
Sequence of PKCη (P24723 whole entry): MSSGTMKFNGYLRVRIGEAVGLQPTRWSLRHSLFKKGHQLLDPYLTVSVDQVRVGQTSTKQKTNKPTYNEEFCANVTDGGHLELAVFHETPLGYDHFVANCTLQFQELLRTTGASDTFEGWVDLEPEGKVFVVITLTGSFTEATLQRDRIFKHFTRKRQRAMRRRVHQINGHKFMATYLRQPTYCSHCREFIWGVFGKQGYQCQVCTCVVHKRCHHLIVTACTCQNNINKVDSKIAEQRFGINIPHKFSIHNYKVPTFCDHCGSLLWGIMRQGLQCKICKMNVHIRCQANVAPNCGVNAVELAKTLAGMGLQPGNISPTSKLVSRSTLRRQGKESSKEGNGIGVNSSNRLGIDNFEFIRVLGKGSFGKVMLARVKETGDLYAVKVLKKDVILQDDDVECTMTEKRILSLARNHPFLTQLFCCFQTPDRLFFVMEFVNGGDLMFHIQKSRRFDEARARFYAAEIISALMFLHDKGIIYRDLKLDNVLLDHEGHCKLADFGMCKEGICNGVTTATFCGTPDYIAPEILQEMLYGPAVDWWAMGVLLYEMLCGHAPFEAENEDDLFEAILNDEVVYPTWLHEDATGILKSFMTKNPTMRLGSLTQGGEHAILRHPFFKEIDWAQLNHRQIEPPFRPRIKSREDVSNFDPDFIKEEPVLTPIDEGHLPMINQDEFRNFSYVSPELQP
Description: as §1

PKCι = target: T2, PKCι (Homo sapiens, UniProt P41743)
T2 sequence (P41743 1-596): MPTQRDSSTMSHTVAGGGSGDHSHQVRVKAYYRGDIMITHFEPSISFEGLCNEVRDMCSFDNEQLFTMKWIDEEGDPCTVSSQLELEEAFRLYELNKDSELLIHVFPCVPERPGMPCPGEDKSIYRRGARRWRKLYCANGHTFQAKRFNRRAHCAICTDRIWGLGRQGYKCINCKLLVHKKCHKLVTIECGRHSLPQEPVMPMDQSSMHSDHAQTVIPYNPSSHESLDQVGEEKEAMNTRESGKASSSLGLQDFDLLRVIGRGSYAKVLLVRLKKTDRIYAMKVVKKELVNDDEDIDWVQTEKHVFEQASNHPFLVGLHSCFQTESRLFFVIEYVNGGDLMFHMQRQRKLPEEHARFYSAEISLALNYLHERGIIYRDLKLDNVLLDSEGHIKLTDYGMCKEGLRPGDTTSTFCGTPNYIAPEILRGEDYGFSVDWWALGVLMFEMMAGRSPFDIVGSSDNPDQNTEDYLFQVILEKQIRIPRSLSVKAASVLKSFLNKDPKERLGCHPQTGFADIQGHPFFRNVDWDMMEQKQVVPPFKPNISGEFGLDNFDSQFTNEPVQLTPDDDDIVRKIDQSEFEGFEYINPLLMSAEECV
Description: as §1

PKCμ = target: T3, PKCμ (Homo sapiens, UniProt Q15139)
T3 sequence (Q15139 1-912): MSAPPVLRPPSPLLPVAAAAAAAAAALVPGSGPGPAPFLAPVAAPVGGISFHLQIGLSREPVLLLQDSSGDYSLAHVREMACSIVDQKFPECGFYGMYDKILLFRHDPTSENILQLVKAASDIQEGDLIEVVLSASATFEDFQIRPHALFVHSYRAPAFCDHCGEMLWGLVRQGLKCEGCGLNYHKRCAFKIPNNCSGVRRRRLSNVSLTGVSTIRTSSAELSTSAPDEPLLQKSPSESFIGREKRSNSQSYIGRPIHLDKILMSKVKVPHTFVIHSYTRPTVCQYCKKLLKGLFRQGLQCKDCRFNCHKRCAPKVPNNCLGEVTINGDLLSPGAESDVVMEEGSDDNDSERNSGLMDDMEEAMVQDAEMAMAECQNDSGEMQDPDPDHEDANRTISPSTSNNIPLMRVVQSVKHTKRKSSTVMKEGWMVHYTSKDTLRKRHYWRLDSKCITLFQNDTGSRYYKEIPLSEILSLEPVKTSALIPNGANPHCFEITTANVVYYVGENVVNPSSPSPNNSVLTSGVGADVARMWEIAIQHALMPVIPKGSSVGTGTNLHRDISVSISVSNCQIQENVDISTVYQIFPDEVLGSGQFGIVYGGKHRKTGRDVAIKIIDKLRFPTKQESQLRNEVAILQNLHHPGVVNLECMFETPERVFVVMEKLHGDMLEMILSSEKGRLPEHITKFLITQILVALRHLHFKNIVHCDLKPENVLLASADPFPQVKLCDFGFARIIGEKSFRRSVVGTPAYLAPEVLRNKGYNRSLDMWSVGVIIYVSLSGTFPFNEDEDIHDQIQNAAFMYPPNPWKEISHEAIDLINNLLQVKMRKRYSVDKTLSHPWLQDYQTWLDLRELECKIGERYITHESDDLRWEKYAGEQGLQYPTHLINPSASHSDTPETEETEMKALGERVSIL
Description: as §1

Sequence of PKCβI (P05771 whole entry): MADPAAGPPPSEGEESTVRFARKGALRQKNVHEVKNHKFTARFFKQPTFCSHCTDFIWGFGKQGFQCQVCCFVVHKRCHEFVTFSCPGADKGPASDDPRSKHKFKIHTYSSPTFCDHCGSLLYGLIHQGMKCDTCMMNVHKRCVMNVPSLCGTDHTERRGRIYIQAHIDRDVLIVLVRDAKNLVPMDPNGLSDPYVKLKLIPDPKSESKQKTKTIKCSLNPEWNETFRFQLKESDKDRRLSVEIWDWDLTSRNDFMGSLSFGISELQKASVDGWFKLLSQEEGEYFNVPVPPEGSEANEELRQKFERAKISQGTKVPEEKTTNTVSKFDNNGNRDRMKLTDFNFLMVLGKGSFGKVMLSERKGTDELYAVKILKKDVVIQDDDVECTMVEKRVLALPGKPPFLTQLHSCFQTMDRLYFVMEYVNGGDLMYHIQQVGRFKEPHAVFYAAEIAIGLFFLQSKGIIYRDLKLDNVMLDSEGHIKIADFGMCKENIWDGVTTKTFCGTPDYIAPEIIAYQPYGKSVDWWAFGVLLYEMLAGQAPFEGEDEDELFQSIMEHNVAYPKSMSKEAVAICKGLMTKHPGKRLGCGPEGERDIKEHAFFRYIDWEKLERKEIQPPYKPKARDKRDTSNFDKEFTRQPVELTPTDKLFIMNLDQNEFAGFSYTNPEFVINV

activity of isozyme on peptide compared with PKCα (PKCβI): slightly more active than PKCα
activity of isozyme on peptide compared with PKCα (PKCβII): comparable activities to that of PKCα
activity of isozyme on peptide compared with PKCα (PKCγ): comparable activities to that of PKCα
activity of isozyme on peptide (PKCδ): no activity
activity of isozyme on peptide (PKCε): very little activity
activity of isozyme on peptide (PKCη): very little activity
activity of isozyme on peptide (PKCι): very little activity
activity of isozyme on peptide (PKCμ): no activity
Substance: Ac-RRR-C(Sox)-ASFRRKA-CONH2 [PKCα-S10(P10), Sox chemosensor with extended recognition domain for PKCα]
